Test results: PMC4072690 (PLoS ONE, 2014)

What was measured:
[1] = target: T1, Escherichia coli GroEL, endogenous (Escherichia coli TG1 (K-12) and BL21, UniProt P0A6F5); assay: ELISA; details: one partner purified
T1 construct: also called EcGroEL

[2] = target: Francisella tularensis LVS recombinant GroEL with N-terminal His tag (Francisella tularensis subsp. …, UniProt P94798, strain); assay: ELISA; details: one partner purified
[3] = target: T2, GroEL of Francisella tularensis SchuS4, endogenous (Francisella tularensis subsp. …, UniProt Q5NEE1); assay: ELISA; details: one partner purified
T2 construct: source: endogenous, SchuS4 NP40 lysate

[4] = target: T3, purified FtGroEL used in the DXMS experiments (Francisella tularensis, strain not …, UniProt Q5NEE1); assay: HDX-MS; details: both partners purified
T3 construct: copies: 14

[5] = target: T4, Francisella tularensis SchuS4 recombinant GroEL with N-terminal His tag (Francisella tularensis subsp. …, UniProt Q5NEE1); assay: Western blot; details: one partner purified
T4 construct: source: E. coli BL21(DE3)pLysS, pET14b, IPTG induced, in BugBuster lysate; not shown: His6, N-terminal, kept

[6] = target: GroEL of Francisella tularensis LVS, endogenous (Francisella tularensis subsp. …, UniProt P94798, strain); assay: competition Western blot; details: one partner purified
[7] = target: T4, Francisella tularensis SchuS4 …; assay: ELISA; details: one partner purified
[8] = target: T1, Escherichia coli GroEL, endogenous; assay: Western blot; details: one partner purified

| Binder | binding result [1] | binding result [2] | binding result [3] | binding result [4] | binding result [5] | binding result [6] | binding result [7] | binding result [8] |
| --- | --- | --- | --- | --- | --- | --- | --- | --- |
| Ab64 mouse monoclonal antibody (IgG2a,κ) specific for FtGroEL (antibody, V domains shown, also called Ab64 IgG) VH: EVQLLESGPELVRLGASVKVSCKASGYSFTDYNMYWVKQSHGKSLEWIGYIDPYNGDASYNQKFKGKATLTVDKSSSTAFMHLNSLTSEDSAVYYCARTGYYYGRSYAMDYWGQGTSVTVSS VL: DIVMTQAAPSVPVTPGESVSISCRSSKSLLHSNGNTYLYWFLQRPGQSPQLLIYRMSNLASGVPDRFSGSGSGTAFTLRISKVEAEDVGVYYCMQHLEYPYTFGGGTKLDVK | no binding | binds | binds | binds | binds | binds |  |  |
| Ab64 Fab (Fab, V domains shown, also called Fab fragment of Ab64; source: cleavage of purified Ab64 IgG with the Pierce Fab Preparation Kit) VH: EVQLLESGPELVRLGASVKVSCKASGYSFTDYNMYWVKQSHGKSLEWIGYIDPYNGDASYNQKFKGKATLTVDKSSSTAFMHLNSLTSEDSAVYYCARTGYYYGRSYAMDYWGQGTSVTVSS VL: DIVMTQAAPSVPVTPGESVSISCRSSKSLLHSNGNTYLYWFLQRPGQSPQLLIYRMSNLASGVPDRFSGSGSGTAFTLRISKVEAEDVGVYYCMQHLEYPYTFGGGTKLDVK |  |  |  | binds |  |  |  |  |
| Ab53 mouse monoclonal antibody (IgG2a,κ) specific for FtGroEL (antibody, V domains shown, also called Ab53 IgG) VH: EVKLLESGGGLVQPGGSMKLSCVASGFTFSIFWMNWVRQSPEKGLEWVAEVRLKSNNYATHYAESVKGRFTISRDDSKSGVYLQMNNLRAEDTGIYYCTRGYYGSNYGEYWGQGTTLTVSS VL: not shown |  | binds | binds | binds |  | binds | binds | binds |
| Ab53 Fab (Fab, V domains shown, also called Fab fragment of Ab53; source: cleavage of purified Ab53 IgG with the Pierce Fab Preparation Kit) VH: EVKLLESGGGLVQPGGSMKLSCVASGFTFSIFWMNWVRQSPEKGLEWVAEVRLKSNNYATHYAESVKGRFTISRDDSKSGVYLQMNNLRAEDTGIYYCTRGYYGSNYGEYWGQGTTLTVSS VL: not shown |  |  |  | binds |  |  |  |  |
